Test system: peptide library, one residue held at a place counted from the Y acceptor
Experiment: relative phosphorylation of the sub-library (ratio to the mean residue at this position); higher = residue favoured
In short: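 Purified recombinant kinases were given 50 μM ATP with γ-32P-ATP and biotinylated Tyr-centred peptide library mixtures for 90 min in 384-well plates. Peptides bound to streptavidin membranes were rinsed and quantified by phosphorimaging, and intensities were normalized per position by the sum of the 18 randomized residues (16 with the Ser/Thr-free library) and multiplied by that number. The reported values are phosphorylation relative to the mean randomized residue.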

Chain of PDHK3, construct: Full length, human (Q15120 whole entry, looked up): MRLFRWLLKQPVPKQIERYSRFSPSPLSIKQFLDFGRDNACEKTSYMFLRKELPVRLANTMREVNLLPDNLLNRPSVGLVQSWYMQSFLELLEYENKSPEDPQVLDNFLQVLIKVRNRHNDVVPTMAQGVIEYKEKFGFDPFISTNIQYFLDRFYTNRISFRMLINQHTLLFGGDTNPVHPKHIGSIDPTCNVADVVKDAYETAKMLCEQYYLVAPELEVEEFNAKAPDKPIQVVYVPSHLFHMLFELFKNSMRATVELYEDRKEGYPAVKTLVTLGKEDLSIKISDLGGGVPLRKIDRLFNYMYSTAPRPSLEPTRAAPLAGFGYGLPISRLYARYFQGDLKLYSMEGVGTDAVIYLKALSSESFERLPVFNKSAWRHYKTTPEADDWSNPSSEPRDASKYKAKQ

PDHK3, construct: Full length, human (from UniProt Q15120)
relative phosphorylation
Conditions | at +1 | at +2 | at +3 | at +4 | at +5 | at -1 | at -2 | at -3 | at -4 | at -5
A fixed | 0.864 | 0.935 | 0.907 | 1.15 | 0.809 | 0.955 | 1.04 | 0.965 | 1.15 | 1.1
D fixed | 1.32 | 1.44 | 1.3 | 1.46 | 1.44 | 1.19 | 1.1 | 1.17 | 1.1 | 1.09
E fixed | 1.1 | 1.02 | 1.32 | 1.46 | 1.23 | 0.907 | 1.02 | 0.781 | 0.943 | 0.994
F fixed | 0.733 | 0.957 | 0.902 | 0.883 | 0.884 | 0.734 | 0.863 | 0.82 | 0.811 | 0.999
G fixed | 1.14 | 0.947 | 1.11 | 1.06 | 1.09 | 1.03 | 1.07 | 1.24 | 1.33 | 1.12
H fixed | 0.976 | 1.03 | 0.971 | 1.07 | 0.992 | 0.908 | 0.901 | 0.76 | 0.958 | 1.06
I fixed | 0.74 | 0.721 | 0.875 | 0.87 | 0.766 | 0.781 | 0.793 | 0.67 | 0.826 | 0.874
K fixed | 1.02 | 0.994 | 0.862 | 0.886 | 0.842 | 1.22 | 1.15 | 1.17 | 1 | 1.09
L fixed | 0.876 | 0.878 | 0.869 | 1.03 | 0.886 | 0.906 | 1.12 | 1 | 0.9 | 0.95
M fixed | 0.895 | 0.784 | 1.03 | 0.855 | 0.873 | 0.765 | 0.875 | 0.745 | 0.843 | 0.779
N fixed | 1.18 | 1.01 | 0.955 | 0.877 | 0.944 | 1.04 | 0.912 | 0.933 | 0.986 | 0.897
P fixed | 1.15 | 1.14 | 0.994 | 1.09 | 1.01 | 1.26 | 1.39 | 1.71 | 1.09 | 1.08
Q fixed | 1.1 | 0.957 | 0.916 | 0.855 | 0.986 | 1.08 | 0.825 | 1.04 | 0.995 | 0.978
R fixed | 1.09 | 0.889 | 0.906 | 0.714 | 0.926 | 1.09 | 1.02 | 1.01 | 1.18 | 0.997
V fixed | 0.722 | 0.908 | 0.836 | 0.781 | 0.778 | 0.898 | 0.911 | 0.885 | 0.827 | 0.844
W fixed | 1.1 | 1.39 | 1.26 | 0.97 | 1.54 | 1.24 | 1.03 | 1.09 | 1.07 | 1.15
pThr fixed | 1.23 | 1.1 | 1.23 | 1.5 | 1.23 | 1.05 | 0.926 | 1.01 | 0.884 | 0.839
pTyr fixed | 1.22 | 1.04 | 1.01 | 1.05 | 1.42 | 0.948 | 0.814 | 0.789 | 0.694 | 0.754

— the supplement of paper PMC11136658
